From PMC2115046
“And” between values parts separate entries of the source, which are not always exact repeats. Equal entries are not always repeated. Where two headings read alike, the source gives them in different places.

How the values were obtained:
[1] = biological target: G-actin, rabbit skeletal muscle (rabbit) (UniProt P68135)
[2] = biological target: G-actin, rabbit skeletal muscle (rabbit) (UniProt P68135); assay: dissociation kinetics by etheno-ATP fluorescence decay
[3] = biological target: G-actin, rabbit skeletal muscle (rabbit) (UniProt P68135); assay: other fluorescence titration
[4] = biological target: G-actin, rabbit skeletal muscle (rabbit) (UniProt P68135); assay: association kinetics by inactivation of etheno-ATP exchange

14NT, 14-kD fragment of human plasma gelsolin containing the NH2 terminal (domain or fragment), sequence (P06396 28-782): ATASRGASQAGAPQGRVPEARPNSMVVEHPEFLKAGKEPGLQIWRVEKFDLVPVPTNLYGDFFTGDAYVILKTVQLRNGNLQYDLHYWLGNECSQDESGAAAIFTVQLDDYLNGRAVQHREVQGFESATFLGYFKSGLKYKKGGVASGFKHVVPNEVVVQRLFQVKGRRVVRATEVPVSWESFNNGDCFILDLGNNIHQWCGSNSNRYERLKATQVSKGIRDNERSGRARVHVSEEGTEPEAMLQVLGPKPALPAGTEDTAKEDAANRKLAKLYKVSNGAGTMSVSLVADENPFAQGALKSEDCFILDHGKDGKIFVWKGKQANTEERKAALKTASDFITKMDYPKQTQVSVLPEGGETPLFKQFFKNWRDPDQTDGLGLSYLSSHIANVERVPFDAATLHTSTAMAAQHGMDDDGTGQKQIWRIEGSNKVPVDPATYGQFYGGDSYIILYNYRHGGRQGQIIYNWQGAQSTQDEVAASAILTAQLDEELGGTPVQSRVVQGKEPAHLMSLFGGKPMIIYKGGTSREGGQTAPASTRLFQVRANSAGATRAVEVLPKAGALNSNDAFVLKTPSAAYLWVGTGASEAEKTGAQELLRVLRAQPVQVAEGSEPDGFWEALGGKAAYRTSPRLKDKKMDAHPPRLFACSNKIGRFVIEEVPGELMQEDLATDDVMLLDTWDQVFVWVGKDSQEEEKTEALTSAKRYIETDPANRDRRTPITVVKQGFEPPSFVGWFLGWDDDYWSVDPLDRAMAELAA
41CT, 41-kD COOH-terminal half of human plasma gelsolin (domain or fragment), sequence (P06396 28-782): as above

| Substance | Ka [1] [M⁻¹] | Kd [1] [nM] | koff [2] [s⁻¹] | t1/2 of the complex [2] [h] | half-maximal saturation [3] | koff [3] [s⁻¹] | stoichiometry N [3] | kon [4] [M⁻¹ s⁻¹] | Kd [3] [nM] |
| --- | --- | --- | --- | --- | --- | --- | --- | --- | --- |
| 14NT, 14-kD fragment of human plasma gelsolin containing the NH2 terminal (domain or fragment) | 2.2e+11 | 0.004 to 0.005 | 1.35e-06 | 143 | 1 nM and 2 nM | 0.0003 | 1 | 299000 |  |
| 41CT, 41-kD COOH-terminal half of human plasma gelsolin (domain or fragment) |  |  |  |  |  |  | 1 |  | 25 |
